# Data: PMC9704708 (Proceedings of the National Academy of Sciences of the …, 2022)
# Tests used:
# [1] = target: T1, cytochrome c endogenous in mouse melanoma B16-F1 cells (Mus musculus, UniProt P62897); experiment: immunostaining of cells or tissue
# [2] = target: cytochrome c endogenous in Vero cells (Chlorocebus (African green monkey), …, UniProt G4XXN2); experiment: immunostaining of cells or tissue
# [3] = target: cytochrome c endogenous in bovine aortic endothelial cells (Bos taurus, UniProt P62894); experiment: immunostaining of cells or tissue
# cytochrome c endogenous in bovine aortic endothelial cells, sequence (P62894 whole entry): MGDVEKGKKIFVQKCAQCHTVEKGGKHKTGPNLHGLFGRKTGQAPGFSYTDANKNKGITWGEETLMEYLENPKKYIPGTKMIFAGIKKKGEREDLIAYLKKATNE
# [4] = target: cytochrome c endogenous in human cells (HeLa, IMR-90) (Homo sapiens, UniProt P99999); experiment: immunostaining of cells or tissue
# cytochrome c endogenous in human cells (HeLa, IMR-90), sequence (P99999 whole entry): as the sequence (P62894 whole entry) above, with V12I, Q13M, A16S, F47Y, D51A, T59I, E63D, A84V, G90E, E93A counted along it
# [5] = target: T1, cytochrome c endogenous in mouse …; experiment: flow cytometry on cells
# [6] = target: 1–65 CNBr-cleaved peptide of cytochrome c (Equus caballus (assumed), UniProt P00004); experiment: ELISA
# 1–65 CNBr-cleaved peptide of cytochrome c, sequence (P00004 2-66): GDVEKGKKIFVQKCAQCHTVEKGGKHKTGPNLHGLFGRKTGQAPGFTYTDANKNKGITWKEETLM
# T1 sequence (P62897 whole entry): as the sequence (P62894 whole entry) above, with P45A, E63D, E93A counted along it
binding result [1],binding result [2],binding result [3],binding result [4],binding result [5],binding result [6],Binder
binds,binds,binds,binds,–,–,"monoclonal antibody 1D3 (original, hybridoma-derived) (antibody, V domains shown) VH: QVQLQQPGAELVKPGASVKMSCKASGYTFTSNNMHWVKQTPGQGLEWIGGLYPGNGDTSYNQKFKGKATLTADKSSSTAYMQLSSLTSGDSAVYYCARGIRDFFAMDYWGQGTSVTVSS VL: DIQMTQSPASQSASLGESVTITCLASQTIGTWLAWYQQKPGKSPQLLIYAATSLADGVPSRFSGSGSGTKFSFKISSLQAEDFVSYYCQQLYSTPLTFGAGTKLELK"
–,binds,–,–,binds,binds,"recombinant monoclonal antibody R1D3 (antibody, V domains shown) VH: QVQLQQPGAELVKPGASVKMSCKASGYTFTSNNMHWVKQTPGQGLEWIGGLYPGNGDTSYNQKFKGKATLTADKSSSTAYMQLSSLTSGDSAVYYCARGIRDFFAMDYWGQGTSVTVSS VL: DIQMTQSPASQSASLGESVTITCLASQTIGTWLAWYQQKPGKSPQLLIYAATSLADGVPSRFSGSGSGTKFSFKISSLQAEDFVSYYCQQLYSTPLTFGAGTKLELK"
